Data reported in article PMC5384396.

Tests used:
[1] = molecular target: cynomolgus monkey (cyno) GITR (cynomolgus monkey)
[2] = molecular target: cynomolgus monkey (cyno) GITR (cynomolgus monkey); remark: listed apart in the source

Q: How did the Jurkat NFκB reporter gene assay with cyno GITR-transfected cells, EC50 [1] turn out when MEDI1873 (Fc fusion) was run?
A: 0.422 nM

Q: What about the Kd [2] of the same substance?
A: 107 nM
